Measurements: patent CN101899115A
Values belong to the molecule of their own block, whether it stands above or below them.

How the values were obtained:
[1] = biological target: CD3 (on Jurkat cells) (UniProt P07766); test: FACS, HIT3a alone on Jurkat cells, FITC anti-mouse IgG
[2] = biological target: CD19 (on Raji cells) (UniProt P15391); test: FACS, HIT19a alone on Raji cells, FITC anti-mouse IgG
[3] = biological target: CD3 (on Jurkat cells) (UniProt P07766); test: FACS competition on Jurkat cells: ds-Diabody mixed with competitor HIT3a, HIT3a detected with FITC anti-mouse IgG
[4] = biological target: CD19 (on Raji cells) (UniProt P15391); test: FACS competition on Raji cells: ds-Diabody mixed with competitor HIT19a, HIT19a detected with FITC anti-mouse IgG

- 细胞结合阳性率 [1]: 100%
Molecule: 抗CD3鼠源性单克隆抗体HIT3a (antibody)

- 细胞结合阳性率 [2]: 100%
Molecule: 抗CD19鼠源性单克隆抗体HIT19a (antibody)

- 细胞结合阳性率 (HIT3a signal remaining with ds-Diabody present) [3]: 51.1%
- 细胞结合阳性率 (HIT19a signal remaining with ds-Diabody present) [4]: 63.3%
B1: 二硫键稳定的抗CD3-抗CD19微型双功能抗体 (disulfide-stabilized anti-CD3/anti-CD19 diabody) (bispecific antibody)
chain 1: ADIELTQSPAIMSASPGEKVTMTCSASSSVSYMNWYQQKSGTSPKRWIYDTSKLASGVPARFSGSGSGTSYSLTISGMEAEDAATYYCQQWSSNPFTFGCGTKLELKRGGGGSQVQLQQSGAELVRPGSSVKISCKASGYAFSSYWMNWVKQRPGQGLEWIGQIYPGDGDTNYNGKFKGQATLTADKSSSTAYMQLSGLTSEDSAVYFCARKTISSVVDFYFDYWGQGTTLTVSS
chain 2: DIVLTQSPKFMSTSVGDRVSSPAKASQNVGTNVAWYQQKPGQSPKPLIYSATYRNSGVPDRFTGSGSGTDFTLTITNVQSKDLADYFCQQYNRYPYTSGGGTKLEIKRGGGGSQVQLQQSGAELARPGASVKMSCKASGYTFTRYTMHWVKQRPGQCLEWIGYINPSRGYTNYNQKFKDKATLTTDKSSSTAYMELTRLTSEDSAVYYCARYYDDHYSLDYWGQGTTVTVSS
